In the supplement of paper PMC7877785:
± gives the uncertainty stated by the source.

Assay: self-splicing fitness, log relative to wild type (ln ratio); higher = more splicing; Tetrahymena group I intron in knt gene, E. coli kanamycin selection, DiMSum; sequences stand for … in CUCUCU…GGAGGGAAAAGUUAUCAGGCAUGCACCUGGUAGCUAGUCUUUAAACCAAUAGAUUGCAUCGGUUUAAAAGGCAAGACCGUCAAAUUGCGGGAAAGGGGUCAACAGCCGUUCAGUACCAAGUCUCAGGGGAAACUUUGAGAUGGCCUUGCAAAGGGUAUGGUAAUAAGCUGACGGACAUGGUCCUAACCACGCAGCCAAGUCCUAAGUCAACAGAUCUUCUGUUGAUAUGGAUGCAGUUCACAGACUAAAUGUCGGUCGGGGAAGAUGUAUUCUUCUCAUAAGAUAUAGUCGGACCUCUCCUUAAUGGGAGCUAGCGGAUGAAGUGAUGCAACACUGGAGCCGCUGGGAACUAAUUUGUAUGCGAAAGUAUAUUGAUUAGUUUUGGAGUACUCGUGGUCG
Procedure, shortened: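 Six replicate transformations of E. coli BL21(DE3) with a pET-22b(+) library were grown overnight at 37°C or 30°C. The library randomised all eight P1ex-region intron nucleotides, the intron lying in the knt kanamycin-resistance gene, and plates were LB agar with or without 25 μg/mL kanamycin plus 100 μg/mL carbenicillin, 50 μM IPTG and 0.2% rhamnose. Pooled colonies were amplicon-sequenced on an Illumina HiSeq 2500, and fitness is the DiMSum error-weighted combination of wild-type-normalised replicate fold changes, kanamycin versus none.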

UUCAAGCAAUAUUACGUUGG
self-splicing fitness (ln) (30 °C): -2.28 ± 0.17
self-splicing fitness (ln) (37 °C): -1.66 ± 0.24

UUCAAGCAAUAUUACGUUUC
self-splicing fitness (ln) (30 °C): -3.02 ± 0.13
self-splicing fitness (ln) (37 °C): -2.25 ± 0.18

UUCCAGCAAUAUUACGAACC
self-splicing fitness (ln) (30 °C): -2.74 ± 0.42
self-splicing fitness (ln) (37 °C): 0.108 ± 0.43

UUCCAGCAAUAUUACGAGCA
self-splicing fitness (ln) (30 °C): -1.08 ± 0.098
self-splicing fitness (ln) (37 °C): -0.767 ± 0.13

UUCCAGCAAUAUUACGAUGA
self-splicing fitness (ln) (30 °C): -0.211 ± 0.067
self-splicing fitness (ln) (37 °C): 0.0453 ± 0.072

UUCCAGCAAUAUUACGAUUG
self-splicing fitness (ln) (30 °C): -2.03 ± 0.12
self-splicing fitness (ln) (37 °C): -1.47 ± 0.16

UUCCAGCAAUAUUACGCCCU
self-splicing fitness (ln) (37 °C): -2.93 ± 0.49

UUCCAGCAAUAUUACGCGAG
self-splicing fitness (ln) (30 °C): -0.566 ± 0.082
self-splicing fitness (ln) (37 °C): -0.29 ± 0.082

UUCCAGCAAUAUUACGCUCA
self-splicing fitness (ln) (30 °C): -0.327 ± 0.068
self-splicing fitness (ln) (37 °C): 0.143 ± 0.089

UUCCAGCAAUAUUACGGAAU
self-splicing fitness (ln) (30 °C): -3.81 ± 0.26
self-splicing fitness (ln) (37 °C): -2.77 ± 0.28

UUCCAGCAAUAUUACGGGCG
self-splicing fitness (ln) (30 °C): -0.245 ± 0.081
self-splicing fitness (ln) (37 °C): 0.254 ± 0.097

UUCCAGCAAUAUUACGGUAC
self-splicing fitness (ln) (30 °C): -4.17 ± 0.24
self-splicing fitness (ln) (37 °C): -2.6 ± 0.23

UUCCAGCAAUAUUACGUAUG
self-splicing fitness (ln) (30 °C): -3.02 ± 0.13
self-splicing fitness (ln) (37 °C): -1.38 ± 0.14

UUCCAGCAAUAUUACGUGCU
self-splicing fitness (ln) (30 °C): -4.4 ± 0.34
self-splicing fitness (ln) (37 °C): -3.29 ± 0.29

UUCCAGCAAUAUUACGUUUU
self-splicing fitness (ln) (30 °C): -3.74 ± 0.14
self-splicing fitness (ln) (37 °C): -2.65 ± 0.16

UUCGAGCAAUAUUACGAAGA
self-splicing fitness (ln) (30 °C): -2 ± 0.29
self-splicing fitness (ln) (37 °C): -1.36 ± 0.25

UUCGAGCAAUAUUACGAGGG
self-splicing fitness (ln) (30 °C): -3.94 ± 0.3
self-splicing fitness (ln) (37 °C): -3.12 ± 0.37

UUCGAGCAAUAUUACGAUCC
self-splicing fitness (ln) (30 °C): -2.6 ± 0.49

UUCGAGCAAUAUUACGAUGU
self-splicing fitness (ln) (30 °C): -3.71 ± 0.46
self-splicing fitness (ln) (37 °C): -2.7 ± 0.25

UUCGAGCAAUAUUACGCACA
self-splicing fitness (ln) (30 °C): -1.76 ± 0.25
self-splicing fitness (ln) (37 °C): -1.45 ± 0.28

UUCGAGCAAUAUUACGCUCG
self-splicing fitness (ln) (30 °C): -1.64 ± 0.25
self-splicing fitness (ln) (37 °C): -3.36 ± 0.42

UUCGAGCAAUAUUACGCUGA
self-splicing fitness (ln) (30 °C): -2.66 ± 0.45
self-splicing fitness (ln) (37 °C): -1.89 ± 0.44

UUCGAGCAAUAUUACGCUGG
self-splicing fitness (ln) (30 °C): -0.924 ± 0.28
self-splicing fitness (ln) (37 °C): -1.02 ± 0.42

UUCGAGCAAUAUUACGCUUG
self-splicing fitness (ln) (30 °C): -3.26 ± 0.41

UUCGAGCAAUAUUACGGCAG
self-splicing fitness (ln) (30 °C): -2.05 ± 0.17
self-splicing fitness (ln) (37 °C): -1.39 ± 0.19

UUCGAGCAAUAUUACGGCGA
self-splicing fitness (ln) (30 °C): -2.23 ± 0.17
self-splicing fitness (ln) (37 °C): -0.638 ± 0.18

UUCGAGCAAUAUUACGGGAA
self-splicing fitness (ln) (30 °C): -1.74 ± 0.16
self-splicing fitness (ln) (37 °C): -0.981 ± 0.15

UUCGAGCAAUAUUACGGGUG
self-splicing fitness (ln) (30 °C): -1.78 ± 0.074
self-splicing fitness (ln) (37 °C): -1.42 ± 0.086

UUCGAGCAAUAUUACGGUGU
self-splicing fitness (ln) (37 °C): -3.35 ± 0.42

UUCGAGCAAUAUUACGUAGG
self-splicing fitness (ln) (30 °C): -2.9 ± 0.2
self-splicing fitness (ln) (37 °C): -1.52 ± 0.19

UUCGAGCAAUAUUACGUCUG
self-splicing fitness (ln) (30 °C): -2.57 ± 0.24
self-splicing fitness (ln) (37 °C): -1.65 ± 0.22

UUCGAGCAAUAUUACGUGGC
self-splicing fitness (ln) (30 °C): -1.49 ± 0.48

UUCGAGCAAUAUUACGUUCA
self-splicing fitness (ln) (30 °C): -1.99 ± 0.13
self-splicing fitness (ln) (37 °C): -1.15 ± 0.13

UUCUAGCAAUAUUACGAGAU
self-splicing fitness (ln) (30 °C): -3.95 ± 0.33
self-splicing fitness (ln) (37 °C): -2.67 ± 0.34

UUCUAGCAAUAUUACGCAAG
self-splicing fitness (ln) (30 °C): -2.26 ± 0.35
self-splicing fitness (ln) (37 °C): -0.437 ± 0.34

UUCUAGCAAUAUUACGCUAU
self-splicing fitness (ln) (30 °C): -4.08 ± 0.29
self-splicing fitness (ln) (37 °C): -1.42 ± 0.15

UUCUAGCAAUAUUACGCUGG
self-splicing fitness (ln) (30 °C): -4.38 ± 0.46

UUCUAGCAAUAUUACGGACG
self-splicing fitness (ln) (30 °C): -1.14 ± 0.15
self-splicing fitness (ln) (37 °C): 0.26 ± 0.15

UUCUAGCAAUAUUACGGAGA
self-splicing fitness (ln) (30 °C): -2.45 ± 0.29
self-splicing fitness (ln) (37 °C): -2.41 ± 0.49

UUCUAGCAAUAUUACGGGCA
self-splicing fitness (ln) (30 °C): -0.323 ± 0.12
self-splicing fitness (ln) (37 °C): -0.0935 ± 0.12

UUCUAGCAAUAUUACGGGCC
self-splicing fitness (ln) (37 °C): -2.38 ± 0.45

UUCUAGCAAUAUUACGGGCG
self-splicing fitness (ln) (30 °C): -0.382 ± 0.12
self-splicing fitness (ln) (37 °C): -0.891 ± 0.12

UUCUAGCAAUAUUACGGGUC
self-splicing fitness (ln) (30 °C): -3.23 ± 0.32
self-splicing fitness (ln) (37 °C): -1.94 ± 0.23

UUCUAGCAAUAUUACGGGUU
self-splicing fitness (ln) (30 °C): -2.34 ± 0.17
self-splicing fitness (ln) (37 °C): -1.93 ± 0.24

UUCUAGCAAUAUUACGGUGC
self-splicing fitness (ln) (30 °C): -2.46 ± 0.4
self-splicing fitness (ln) (37 °C): -2.96 ± 0.38

UUCUAGCAAUAUUACGUAAA
self-splicing fitness (ln) (30 °C): -1.56 ± 0.26
self-splicing fitness (ln) (37 °C): -0.54 ± 0.23

UUCUAGCAAUAUUACGUAAU
self-splicing fitness (ln) (30 °C): -3.08 ± 0.15
self-splicing fitness (ln) (37 °C): -1.88 ± 0.17

UUCUAGCAAUAUUACGUACU
self-splicing fitness (ln) (30 °C): -3.29 ± 0.36
self-splicing fitness (ln) (37 °C): -2.97 ± 0.47

UUCUAGCAAUAUUACGUCGC
self-splicing fitness (ln) (30 °C): -3.18 ± 0.44

UUCUAGCAAUAUUACGUCUC
self-splicing fitness (ln) (30 °C): -3.85 ± 0.37
self-splicing fitness (ln) (37 °C): -2.23 ± 0.25
